The results in this text go back to patent US12611470B2, “Chromatin-opening element for stable long term gene expression” (CZ Biohub SF, LLC, priority 2019, dated 2026).

For this data set, the system named is P19 cells. Description: Lentiviral transduction silencing experiment, UCOE linked to CMV, EF1α, RSV or PGK promoter driving GFP. The note with it: for anti-silencing performance across all four tested promoters: CMV, EF1α, RSV, PGK promoters; for GFP positive cells / expression compared to the negative control: final timepoint. It is filed as cell-based, mouse. An excerpt:
The graphs show the raw data of measured percent GFP positive cells (% GFP+) for each construct over time. Transduced populations were sorted into triplicate wells using FACS at day 0 (5 days after lentiviral transductions) to begin the study at 100% GFP positive cells. Expression is lost quickly within the first 10 days, and then stabilizes around day 15. Data is reported as mean±SD from biological triplicates. Two positive UCOE controls (A2UCOE, 3′UCOE) and a negative control (no insulator region) were used.
Percent GFP positive cells at the final timepoint (day 26 for CMV and RSV, day 27 for PGK and EF1α) of the lentivirus silencing experiment across the four tested promoters is plotted. P19 cells were FACS-sorted five days after transduction (day 0) and then assayed over a 26 or 27-day time period thereafter. Data is reported as mean±SD from three biological replicates.
Two plasmids (pCS3800: encoding HIV-1 Gag; pCS380: encoding VSVg envelope protein) were used with varying versions of the donor plasmid pCS3799. HEK293T cells were plated at 5×10^6 cells in a 10 cm dish. Twenty-four hours after plating, the three plasmids (10 μg donor, 8 μg pCS3800, 10 μg pCS3801) were co-transfected together using a calcium phosphate protocol (Zufferey, R. T. and Trono, D. (2001) Current Protocols in Human Genetics, 26 (1), 12.10.1-12.10.12; DOI: 10.1002/0471142905.hg1210s26 (55)). The total DNA was brought to 500 μL in water, to which 500 μL of 2×HEPES-buffered saline, pH7.0 (Alfa Aesar) was added and mixed. One-tenth of the total volume (100 μL) of 2.5 M calcium chloride (Sigma-Aldrich) was then added to the mixture, followed by a 20-minute incubation. The mixture was then added to the plate in a dropwise manner. Media was replaced six hours later, and the supernatant was collected at 48 hr after the transfection, filtered through 0.4 μm filter, and frozen at −80° C. in 1 mL aliquots. Lentiviral aliquots were thawed in a 37° C. bead bath before transductions.
P19 cells were plated at 20-30,000 cells/well in 12-well plates one day before transduction. Twenty-four hours after plating, cells were transduced at varying dilutions of the lentiviral stock (ranging from 1:2 to 1:100) in DMEM+10% FBS with 8 μg/mL polybrene (Santa Cruz Biotechnologies). Media was refreshed on P19 cells 24 hours after transduction, and cells were passaged and assayed through a MACSQuant® VYB flow cytometer (Miltenyi Biotec) 48 h after transduction. MOI was determined by reporter expression at this timepoint using the following formula: MOI=ln (1/1-p) where p is the % of cells that are GFP positive at 48 hours post-transduction (Chen, S. et al. (2015) Cell, 160, 1246-1260 (56)).
Cells were FACS-sorted on the BD Influx™ cell sorter at the Stanford FACS Facility using the 488-nm laser and 525/40 filter to assay GFP expression. After gating for singlets and viability, GFP+ gate was drawn to be <0.1% GFP positive in non-transduced P19 cells. GFP+ gates were re-drawn for each promoter set to avoid the ˜10% highest and lowest expressing cells within the GFP+ gate, but the same gate was used for every experimental condition under the same promoter. Triplicate wells of each population (12-15,000 cells/well in a 24-well plate) were collected.
Fluorescence data throughout silencing experiments was obtained using a MACSQuant® VYB flow cytometer (Miltenyi Biotec). EGFP was measured through the 488-nm laser and 525/50 nm band pass filter. Flow cytometry data was analyzed using the FlowJo™ single cell flow cytometry analysis software (Tree Star). After being gated for singlets and viability, GFP+ gates in FlowJo were drawn such that a non-transfected or non-transduced P19 cell population was at 1% GFP+. Median values reported are of cells within the GFP+ gate, both % GFP positive and median are reported with the standard deviation of biological replicates. […]

[1] abbreviates: Ef1α promoter, day 27 after FACS sort to 100% GFP+.

B1: Candidate 6-3: Truncated SRF-UCOE variant having a 241 base pair 3′ end deletion, SEQ ID NO:4 (nucleic acid)
DNA: GCACACGACCACAATTCCACTGAAAGCATTTTAATACGGAACTTGTCACTCCCAGGGAGCCTCCGCTCAGCCGGCAGTTGGTTCATTTCAATCCCCACGACAACCCTTCAAAGTGCAGGGCAGACAGCAGGTGGCTCTGCCCAGGCGCCTGGATCACAGCCCGGCCTGCAGCCCTCACCTGGGCGCGGGGAGACCCTGAGGACGCTCCTCCAGGCGGCGCTGGCCGGGGCCTGCGGACACGGACGGGCGGGCTGAGCTCCGGGACCCCTCCCCGCGCCCCGCACCCCGCACCCCGCACCCCGCACCCCGCACCCGGCGCTCACCCGTCCCAGCCCCGCCGCCCGCAGCCCCAGCTGCAACGCAGCCACCGCCGCCATCGCACCCGGCCCCGCGGGCGCTTCCGGGACGCAGGAGGCATCTGCATCCGGGGCGCCGCTGAGTCCCGCCCAGAGCCCCGCCCCCGGCTCCAGGTTCTGCGAGCGGCTTCCGCCGGGCTGCTCCGCGGGCGCGTCGGCCATGAGCGAGTTGCCGGGCGACGTGCGGGCGTTTCTGCGGGAGCACCCGAGCCTGCGGCTCCAGACGGACGCCCGCAAGGTTCGCAGCGCGGGAGGGGAACGGAGTGGCGGAGAAGGGCGCAGTTGGGATGAGGGGCTGAGGGGAGGGCAGGGGAGAGGAGAGGGCAGGGGAGAGGGGAGAGGGGAGAGCAGGAGAGAGGGGAAGGCAGGGGAGAGGGCGCGGCGGGATCAGGGGAGGAGAGGGAA
As to B1, the “anti-silencing performance across all four tested promoters” value was “most consistent activity”. Under “CMV promoter, day 26”, the “% GFP+ cells at final timepoint” value was found to be 39% and the “improvement over the negative control” value turned out to be 3 fold. Under “EF1a promoter, day 27”, the “% GFP+ cells, representative example (one biological replicate)” value (shortened to “% GFP+ cells … (one biological replicate)”) was found to be 69%. Under setting [1], the “% GFP+ cells at final timepoint” value is on record as “greater than 65%”. The “GFP positive cells / expression compared to the negative control” value (Ef1α promoter) is on record as “more than four times”. Where the note is “PGK promoter, day 27”, the “% GFP+ cells at final timepoint” value is 49% and the “% GFP+ cells … (one biological replicate)” value is reported as 47.8%. For the same molecule, under “RSV promoter, day 26”, the “% GFP+ cells at final timepoint” value is recorded as 66%.

B2: Candidate 6-1: Truncated SRF-UCOE variant having a 106 base pair 5′ end deletion, SEQ ID NO:2 (nucleic acid)
DNA: TTCAAAGTGCAGGGCAGACAGCAGGTGGCTCTGCCCAGGCGCCTGGATCACAGCCCGGCCTGCAGCCCTCACCTGGGCGCGGGGAGACCCTGAGGACGCTCCTCCAGGCGGCGCTGGCCGGGGCCTGCGGACACGGACGGGCGGGCTGAGCTCCGGGACCCCTCCCCGCGCCCCGCACCCCGCACCCCGCACCCCGCACCCCGCACCCGGCGCTCACCCGTCCCAGCCCCGCCGCCCGCAGCCCCAGCTGCAACGCAGCCACCGCCGCCATCGCACCCGGCCCCGCGGGCGCTTCCGGGACGCAGGAGGCATCTGCATCCGGGGCGCCGCTGAGTCCCGCCCAGAGCCCCGCCCCCGGCTCCAGGTTCTGCGAGCGGCTTCCGCCGGGCTGCTCCGCGGGCGCGTCGGCCATGAGCGAGTTGCCGGGCGACGTGCGGGCGTTTCTGCGGGAGCACCCGAGCCTGCGGCTCCAGACGGACGCCCGCAAGGTTCGCAGCGCGGGAGGGGAACGGAGTGGCGGAGAAGGGCGCAGTTGGGATGAGGGGCTGAGGGGAGGGCAGGGGAGAGGAGAGGGCAGGGGAGAGGGGAGAGGGGAGAGCAGGAGAGAGGGGAAGGCAGGGGAGAGGGCGCGGCGGGATCAGGGGAGGAGAGGGAAGGGGGCGCGGCAGGAGGGGGCACCAGGGAGCGGAGCCCTGGCCCTCCTGACGTCCTGCCCGCCCACGCGTCCGCAGGTGAGGTGCATCCTGACAGGTCACGAGCTGCCCTGCCGCCTGCCGGAGCTCCAGGTCTACACCCGCGGCAAAAAGTACCAGCGGCTGGTCCGCGCCTCCCCGGCCTTCGACTATGCAGAGTTCGAGCCGCACATCGTGCCCAGCACCAAGAACCCGTAGGTGGTC
With B2, where the note is “CMV promoter, day 26”, the “% GFP+ cells at final timepoint” value is given as 39% and the “improvement over the negative control” value was determined as 3 fold. For the same molecule, the “GFP positive cells / expression compared to the negative control” value (Ef1α promoter) amounted to 3.6 times. Also, under “PGK promoter, day 27”, the “% GFP+ cells at final timepoint” value came to 31% and the “expressing cells / improvement over the negative control” value was 5 fold. The “% GFP+ cells at final timepoint” value (RSV promoter, day 26) stood at 68%.

B3: Candidate 6-2: Truncated SRF-UCOE variant having a 478 base pair 5′ end deletion, SEQ ID NO:3 (nucleic acid)
DNA: AGCGGCTTCCGCCGGGCTGCTCCGCGGGCGCGTCGGCCATGAGCGAGTTGCCGGGCGACGTGCGGGCGTTTCTGCGGGAGCACCCGAGCCTGCGGCTCCAGACGGACGCCCGCAAGGTTCGCAGCGCGGGAGGGGAACGGAGTGGCGGAGAAGGGCGCAGTTGGGATGAGGGGCTGAGGGGAGGGCAGGGGAGAGGAGAGGGCAGGGGAGAGGGGAGAGGGGAGAGCAGGAGAGAGGGGAAGGCAGGGGAGAGGGCGCGGCGGGATCAGGGGAGGAGAGGGAAGGGGGCGCGGCAGGAGGGGGCACCAGGGAGCGGAGCCCTGGCCCTCCTGACGTCCTGCCCGCCCACGCGTCCGCAGGTGAGGTGCATCCTGACAGGTCACGAGCTGCCCTGCCGCCTGCCGGAGCTCCAGGTCTACACCCGCGGCAAAAAGTACCAGCGGCTGGTCCGCGCCTCCCCGGCCTTCGACTATGCAGAGTTCGAGCCGCACATCGTGCCCAGCACCAAGAACCCGTAGGTGGTC
Turning to B3, the “anti-silencing performance across all four tested promoters” value is on record as “failed to outperform the negative control in 3 of the 4 promoters tested”. Also, the “efficacy in resisting silencing” value (CMV promoter) is “best-performing population”. For the same molecule, under “CMV promoter, day 26”, the “% GFP+ cells at final timepoint” value worked out at 55%; the “% GFP+ cells … (one biological replicate)” value stood at 59.2%; the “improvement over A2UCOE” value was determined as 1.4 fold; the “improvement over the negative control” value is 4.4 fold. The “efficacy in resisting silencing” value (Ef1α promoter) is on record as “ineffective”. Moreover, the “% GFP+ cells at final timepoint” value under setting [1] is 11%. For the same molecule, the “efficacy in resisting silencing” value (PGK promoter) is on record as “substantially less effective than the other Candidate 6 sequences”. Further, the “% GFP+ cells at final timepoint” value (PGK promoter, day 27) stood at 17%. Besides, the “efficacy in resisting silencing” value (RSV promoter) is recorded as “ineffective”.
